The conditions of data set [1]: 150 µM total; 50 mM HEPES, pH 6.8, 10°C.
Data set [2] is described as follows: Dynamic light scattering / transmission EM of equilibrated samples. The note with it: equilibrated 150 and 300 µM samples. It counts as physicochemical.
The target of data set [3] is T1, NMR invisible oligomeric species of Aβ (1–40) (Homo sapiens, UniProt P05067). It counts as binding.
In data set [4] the target is T1, NMR invisible oligomeric species of Aβ (1–40). The data set can be described thus: 15N-R2 and 1HN-R2 transverse relaxation. It counts as binding.
For another data set, the target named is ^15N-labeled Aβ(1–40) (Homo sapiens, UniProt P05067). Kind of data set: Intermolecular paramagnetic relaxation enhancement. The class given is binding.
^15N-labeled Aβ(1–40), sequence (P05067 672-711 limits assumed): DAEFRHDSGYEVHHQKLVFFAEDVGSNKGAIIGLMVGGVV

“And” between values parts separate entries of the source, which are not always exact repeats. Equal entries are not always repeated.

T1 sequence (P05067 672-711 limits assumed): as above

As to “Aβ(1–40): amyloid β (Aβ) peptide (1–40), uniformly 15N-labeled, prepared from NaOH treated stocks to remove fibril seeds”, the “monomer concentration at pseudo-equilibrium” value in data set [1] was found to be 105 µM. In data set [2], the “presence of aggregates by dynamic light scattering” value is reported as “presence of large polydisperse aggregates was confirmed”. Further, the “morphology by transmission EM” value in data set [2] (negatively stained, >3 weeks) is recorded as “elongated morphologically disordered non-fibrillar aggregates with possibly some small needle-like fibrils present”. For the same substance, in data set [3], the “timescale of monomer-oligomer dynamic equilibrium” value was 10 to 15 ms. For the same substance, the fraction of oligomers result in data set [3] (60 µM) is “negligible”. Besides, the “effect of off-resonance saturation pulse on amide signal intensity” value in data set [3] (60 µM, until pulse approaches resonances of the protein) is “no effect on the signal intensity of the amide resonances”. For the same substance, the “effect of CW pulse far off-resonance on amide resonances” value in data set [3] (300 µM, RF 180 and 350 Hz) is recorded as “uniformly attenuated”. The “fraction of peptide within dark oligomeric state exchanging with free monomer” value in data set [3] (abstract, concentration not specified) was ~ 3%. The “peptides within the oligomer undergoing exchange with free monomer, 1 in about N” value in data set [3] (from fex) is listed as “about 30”. The “mobility of N-terminal 9 residues upon association with oligomer” value in data set [3] (from regional specificity of ΔR2) was “remain highly mobile”. In addition, the “konapp (apparent first order rate constant, monomer to oligomer)” value in data set [4] (300 µM total, pH 6.8, 10°C) is 3.1 s^−1 and ~ 3 s^−1. Besides, the 1HN-R1 of monomer in data set [4] (Aβ(1–40) monomer, 10°C) is 1 s⁻¹. Also, in the data set with ^15N-labeled Aβ(1–40) (if present, or exchange is slow on the PRE time scale (< ca. 1 ms)), the “population of lower order, transient, self-associated states” value is 1–2%.
On to “F20C: single-cysteine variant Aβ(1–40), F20C mutation in the center of the peptide, conjugated to a nitroxide spin-label or a diamagnetic analogue”, for which, in the data set with ^15N-labeled Aβ(1–40) (100 µM U-[15N]-Aβ(1–40) + 170 µM spin-labeled F20C variant), the “intermolecular PREs, in words” value is “essentially no intermolecular PREs were observed”.

The values are drawn from article PMC2915839 (Journal of the American Chemical Society, 2010).
